# Test results from the DeepSol protein solubility set.
# Assay: soluble on expression in E. coli; label from the status in PepcDB or PDB records
row,Sequence,soluble on expression in E. coli
1,MTSAAEITAAVRQLYNTYPFPPEPLLDEPPPGYNWRWSWPAAYSFCTGRYPSQLDVAILDAGCGTGVGTEYLAHLNPQAKITALDLSEAALAIACERCRRSGATNVQFHHLSLEEVAQLGQTFQMINCVGVLHHLPEPQRGIQALADVLAPGGIVHIFVYGEYGRWEIKLMQQAIALLQGSDRHNYREGVAIGRQLFAALPENNRLKKREQERWSLENQRDECFADMYVHPQEIDYTIASLFELIRASGLEFIGFSNPQVWQLERLLGSQPELLQRAQQLDPIQQYQLIECLDPEAMTHFEFFLAKPPLPRHDWAADRELLAAIPWRHPCIDGWPGACVFNCHYEVIHLNQAEQEFLNAASGKATVAELLAQQPDFNLAEVRSLLARHLLLLGVKE,not soluble
2,MSESFAQLFEESLKVLETRQGSIVSGTVVAIQKGFVLVDAGLKSESAIPVAEFLNAQGELEIQVGDTVNVALDAVEDGFGETKLSREKAVRHESWIELEKAYEEKATVIGLIGKVKGGFTVELNGVRAFLPGSLVDTRPAREADHLLGKELEFKVIKLDQKRNNVVVSRRAVIESENSQEREQVLENLVEGSEVKGVVKNLTEYGAFVDLGGVDGLLHITDMAWKRVKHPSEIVNVGDEVTVKVLKFDKDRTRVSLGLKQLGQDPWAAIAENHPVNSKLTGKVTNLTDYGCFVEILDGVEGLVHVSEMDWTNKNIHPSKVVSLGDTVEVMVLEIDEERRRISLGLKQCKANPWTQFADTHNKGDKVTGKIKSITDFGIFIGLEGGIDGLVHLSDISWSISGEEAVRQYKKGDEVSAVVLAVDAVKERISLGIKQLEEDPFNNFVAINKKGAVVSATVVEADAKGAKVELAGGVEGYIRSADLTSEVAVGDVVEAKYTGVDRKSRIVHLSVKAKDQAEEAAAVASVNNKQEDIVIPNAMAEAFKAAKGELEHHHHHH,not soluble
3,MTKIAFVFPGQGAQKVGMGQDVAAEYPEAKKIYDDADERLGFSITEIITEGPIELLTKSENAQPALVSTSVAILRALETYGVKADYVAGHSLGEYSALVAGGFLEASDAIYLVRKRGELMEAAVPNGAGAMAAVLGVDRETLKTITEEVTKEGDAVQLANLNCPGQIVISGTTAGVEKAGEKAKESGAKRVLPLAVSGPFHSSLMEPAALAFRDVLAEVKISDGQIPVVNNVDAKETTDKSEISDKLIKQIYSPVLWEDIVEELIKNGVDTFVEIGSGKVLAGLIKKINRDVTVLSAGDAESVKSVAATLKGE,not soluble
4,MAHQLLIGKGMITLNLKRIFLALTLLPLFAVAADDCALSDPTLTVQAYTVNPQTERVKMYWQKANGEAWGTLHALLADINSQGQVQMAMNGGIYDESYAPLGLYIENGQQKVALNLASGEGNFFIRPGGVFYVAGDKVGIVRLDAFKTSKEIQFAVQSGPMLMENGVINPRIHPNVASSKIRNGVGINKHGNAVFLLSQQATNFYDFACYAKAKLNVEQLLYLDGTISHMYMKGGAIPWQRYPFVTMISVERKGLEHHHHHH,not soluble
5,MSLVEKPVVIKFGGTSVRYAFEEALELVAKLHENMKIIVVVSALAGVTDCLLRLAKGDKSALLEIDEIHEELSQELNVQLEHLIHQLKKTINSKSSFPSEKAFIDEIASFGERFSAKLFSEGLKILGITARPVDSKDVLFVKGEFGNAEVEFKKSAQGVDVLYRMLRRGIVPVVTGYYGNLNGFRATFGRGGSDYSATSIASLVNAKAVLIMSDVEGIYTADPKLVPPARLIHYISYKEAKTAAKLGMKVLHPRAIDPVEGKIPVILGKTRDLKFGTLISHESQGIPIVTHKLLENHAEISVVSVKTNIPLPYEVYEEGDLYFKIKTSKDQFLEVLRDVHRRVVENENLHSSHDGELWTWVEGHHHHHH,soluble
6,MGSDKIHHHHHHMKLRNLLPLLGLMASAAHADAVTIQSCGVSQVFDKTPSRAITLNQQATEVMLALGLQEAMVGTAYIDDAIPAQWNDAYESVPVLAEKYPAAEVVLAQEPDFLFAGFGSAFSEDNLGAAEKWHDLGIGTYLVDASCKDKHLQDVPLTVAPIFEDIETVGKIFNVEDRANALIDTLQQRLDSVKAAPSGAGQTAFIYDSGAETPFSIGCCGGPALLASLTGLQSISSDVPGTWVDLSWEHVVAADPDVILLIEADWSTAAEKRAHMEADPVLSALRAVKEGRFVTVPFSETLLGMRFADGVETVNNQLAKLP,not soluble
